In patent US20120253017A1 (published 2012):

What was measured:
[1] = biological target: T1, human c-kit (recombinant, on BIAcore chip or beads) (human, UniProt P10721 26-524); test: BIAcore, c-kit on SA chip
T1 construct: extracellular domain; also called hcKIT; biotinylated human c-kit
Description: All unique dAb clones were expressed in 50 ml cultures (OnEX plus carbenicillin) overnight at 37° C. and purified on protein A (VH dAbs) or protein L (VK dAbs). Purified dAbs were passed over a SA BIAcore chip coated with either human or mouse c-kit at 1 μM to identify those dAbs that bound specifically to either human or murine c-kit.

[2] = biological target: T2, mouse ventricular myosin light chain 1, GlySer(His)6 tag (mouse, UniProt P09542 1-204); test: BIAcore, vMLC-1 immobilised
T2 construct: also called mouse vMLC-1
Description: (§1) Affinity of all 8 humanised mAbs was determined by BIAcore as described above.

[3] = biological target: T3, human ventricular myosin light chain 1, GlySer(His)6 tag (human, UniProt P08590 1-195, limits assumed); test: BIAcore, vMLC-1 immobilised
T3 construct: also called human vMLC-1; vMLC1-6xHIS
Description: as §1

T3 sequence (P08590 other isoform, or with tags, fused parts or gaps limits assumed): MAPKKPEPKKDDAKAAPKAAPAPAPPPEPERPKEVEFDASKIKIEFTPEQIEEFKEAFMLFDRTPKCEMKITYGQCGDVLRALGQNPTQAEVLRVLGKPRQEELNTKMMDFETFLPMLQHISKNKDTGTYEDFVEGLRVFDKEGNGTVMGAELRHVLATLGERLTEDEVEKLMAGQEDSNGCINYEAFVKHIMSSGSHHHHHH
T1 sequence (P10721 26-524): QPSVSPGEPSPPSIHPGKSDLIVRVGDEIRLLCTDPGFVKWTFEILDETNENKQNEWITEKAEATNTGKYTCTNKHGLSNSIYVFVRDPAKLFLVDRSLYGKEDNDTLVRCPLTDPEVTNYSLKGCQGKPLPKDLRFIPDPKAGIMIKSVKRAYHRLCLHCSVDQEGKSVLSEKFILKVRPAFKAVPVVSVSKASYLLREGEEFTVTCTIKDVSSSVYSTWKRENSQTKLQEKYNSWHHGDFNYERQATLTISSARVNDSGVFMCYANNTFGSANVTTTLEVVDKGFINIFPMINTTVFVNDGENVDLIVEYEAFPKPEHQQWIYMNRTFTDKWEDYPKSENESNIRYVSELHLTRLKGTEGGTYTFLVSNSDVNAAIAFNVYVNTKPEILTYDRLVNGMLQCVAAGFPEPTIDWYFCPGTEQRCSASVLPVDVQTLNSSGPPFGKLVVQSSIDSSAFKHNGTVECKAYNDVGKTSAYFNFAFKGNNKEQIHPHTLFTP
T2 sequence (P09542 other isoform, or with tags, fused parts or gaps): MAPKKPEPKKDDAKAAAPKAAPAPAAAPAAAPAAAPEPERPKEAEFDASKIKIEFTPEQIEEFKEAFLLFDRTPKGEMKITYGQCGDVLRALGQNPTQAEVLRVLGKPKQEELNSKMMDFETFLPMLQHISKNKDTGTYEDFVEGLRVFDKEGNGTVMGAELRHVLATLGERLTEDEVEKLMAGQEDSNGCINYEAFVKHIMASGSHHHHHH

B1: DOM28h-73 (other)
chain: EVQLLESGGGLVQPGGSLRLSCAASGFTFDDYWMQWVRQAPGKGLEWVSSISDEGARTYYADSVKGRFTISRDNSKNTLYLQMNSLRAEDTAVYYCAEYPGLAHFGEDFDYWGQGTLVTVSS
notes: dAb, C-terminal FLAG tag (pDOM10)
**Q.** For B1, which Kd [1] is on record?
**A.** 1300 nM

B2: DOM28h-79 (other)
chain: EVQLLESGGGLVQPGGSLRLSCAASGFTFKNYDMSWVRQAPGKGLEWVSGIWDDGWATYYADSVKGRFTISRDNSKNTLYLQMNSLRAEDTAVYYCAKGAATPGQTIFDYWGQGTLVTVSS
notes: as for B1
**Q.** B2 was tested. Which Kd [1] did it give?
**A.** 218 nM

B3: DOM28h-7 (other)
chain: DIQMTQSPSSLSASVGDRVTITCRASSNIDDDLGWYQQKPGKAPKLLIGWSSDLQSGVPSRFSGSGSGTDFTLTISSLQPEDFATYYCAQWWRGPATFGQGTKVEIKR
notes: as for B1
**Q.** B3 was tested. Which Kd [1] did it give?
**A.** 1400 nM

B4: DOM28h-26 (other)
chain: DIQMTQSPSSLSASVGDRVTITCRASRNIDDELAWYQQKPGKAPKLLIAWGSDLQSGVPSRFSGSGSGTDFTLTISSLQPEDFATYYCGQFRRGPLTFGQGTKVEIKR
notes: as for B1
**Q.** Which Kd [1] does the source give for B4 here?
**A.** 621 nM

B5: humanised 39-15 mAb 1-39:1-3 (antibody, V domains shown)
VH: QVQLVQSGAEVKKPGASVKVSCKASGYTFTTYWIHWVRQAPGQRLEWMGAIYPGDGDTRYTQNFKDRVTITRDTSASTAYMELSSLRSEDMAVYYCAREGTPPFTTATFAMAYWGQGTLVTVSS
VL: DIQMTQSPSSLSASVGDRVTITCKSSQSLLYSRTRKNYLAWYQQKPGKAPKLLIYWASTRQSGVPSRFSGSGSGTDFTLTISSLQPEDFATYYCKQSYNLFTFGQGTKLEIKR
**Q.** What does the source list for B5?
**A.** koff [2]: 8.8e-05 s⁻¹; koff [3]: 2.17e-05 s⁻¹

B6: humanised 39-15 mAb 1-39:1-46 (antibody, V domains shown)
VH: QVQLVQSGAEVKKPGASVKVSCKASGYTFTTYWIHWVRQAPGQGLEWMGAIYPGDGDTRYTQNFKDRVTMTRDTSTSTVYMELSSLRSEDTAVYYCAREGTPPFTTATFAMAYWGQGTLVTVSS
VL: DIQMTQSPSSLSASVGDRVTITCKSSQSLLYSRTRKNYLAWYQQKPGKAPKLLIYWASTRQSGVPSRFSGSGSGTDFTLTISSLQPEDFATYYCKQSYNLFTFGQGTKLEIKR
**Q.** How did the koff [2] turn out when B6 was run?
**A.** 0.000122 s⁻¹

**Q.** What about the koff [3] of the same binder?
**A.** 3.41e-05 s⁻¹

B7: humanised 39-15 mAb 4-1:1-3 (antibody, human IgG1, kappa, V domains shown)
VH: QVQLVQSGAEVKKPGASVKVSCKASGYTFTTYWIHWVRQAPGQRLEWMGAIYPGDGDTRYTQNFKDRVTITRDTSASTAYMELSSLRSEDMAVYYCAREGTPPFTTATFAMAYWGQGTLVTVSS
VL: DIVMTQSPDSLAVSLGERATINCKSSQSLLYSRTRKNYLAWYQQKPGQPPKLLIYWASTRQSGVPDRFSGSGSGTDFTLTISSLQAEDVAVYYCKQSYNLFTFGQGTKLEIKR
notes: human IgG1 kappa
**Q.** What does the source list for B7?
**A.** Kd [2]: 0.0396 nM; koff [2]: 6.6e-05 s⁻¹; kon [2]: 1.67e+06 M⁻¹ s⁻¹; Kd [3]: 0.00825 nM; koff [3]: 1.52e-05 s⁻¹; kon [3]: 1.84e+06 M⁻¹ s⁻¹

B8: DOM28h-78 (other)
chain: EVQLLESGGGLVQPGGSLRLSCAASGFTFEHYPMGWVRQAPGKGLEWVSHISYDGTDTYYADSVKGRFTISRDNSKNTLYLQMNSLRAEDTAVYYCAKFHNQWDIYSFDYWGQGTLVTVSS
notes: as for B1
**Q.** With B8 as the binder, how does the Kd [1] read?
**A.** 233 nM

B9: DOM28h-54 (other)
chain: EVQLLESGGGLVQPGGSLRLSCAASGFTFESYDMSWVRQAPGKGLEWVSGIYPDGGATYYADSVKGRFTISRDNSKNTLYLQMNSLRAEDTAVYYCAKGEPNLFDYWGQGTLVTVSS
notes: as for B1
**Q.** Which Kd [1] does the source give for B9 here?
**A.** 490 nM

B10: DOM28h-20 (other)
chain: DIQMTQSPSSLSASVGDRVTITCRASRSISDELTWYQQKPGKAPKLLISWGSSLQSGVPSRFSGSGSGTDFTLTISSLQPEDFATYYCLQTWELPVTFGQGTKVEIKR
notes: as for B1
**Q.** For B10, which Kd [1] is on record?
**A.** 1000 nM
